The values that follow come from paper PMC2940758, “The N-Terminal Domain of the Arenavirus L Protein Is an RNA Endonuclease Essential in mRNA Transcription”.

The data set concerns the target T1, NL1 (N-terminal endonuclease domain of L protein) (Lymphocytic choriomeningitis virus …, UniProt P14240 1-196).
T1 sequence: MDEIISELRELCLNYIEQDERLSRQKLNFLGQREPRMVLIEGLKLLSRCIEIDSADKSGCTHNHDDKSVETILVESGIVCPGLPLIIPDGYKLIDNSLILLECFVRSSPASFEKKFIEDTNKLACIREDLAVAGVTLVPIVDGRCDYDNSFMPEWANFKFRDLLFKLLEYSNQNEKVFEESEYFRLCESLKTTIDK
Briefly: EMSA. Conditions: protein: recombinant; tags: N-terminal His6; label: 5'-32P; unpaired. Background: A gel shift assay detects complexes by their altered migration in electrophoresis.

AUUUUGUUUUUAAUAUUUC (ssRNA) [19-mer unstructured RNA]: the binding result was “binds”.
